Patent US20180187211A1

Molecular target: PDL1 on the surface of TC-1 cells (mouse (TC-1 murine tumor cell line)) (UniProt Q9EP73)
Test: flow cytometry, staining of TC-1 tumor cells (background control)

UniProt Q9EP73, sequence (Q9EP73 19-290): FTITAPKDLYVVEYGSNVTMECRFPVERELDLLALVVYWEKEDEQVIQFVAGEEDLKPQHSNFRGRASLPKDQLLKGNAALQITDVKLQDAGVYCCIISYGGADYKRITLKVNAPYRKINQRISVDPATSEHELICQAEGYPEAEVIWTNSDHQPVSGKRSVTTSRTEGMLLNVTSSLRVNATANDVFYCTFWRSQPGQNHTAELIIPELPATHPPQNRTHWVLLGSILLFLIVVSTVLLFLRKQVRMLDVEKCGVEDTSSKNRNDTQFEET

In the case of PE-conjugated isotype control antibody, the median fluorescent intensity (MFI) is reported as 184 MFI.
